From US20250313625A1 (ELPISCIENCE SUZHOU BIOPHARMA, published 2025)
Positions count from the first letter of the chain named. Names may count otherwise. Where two headings read alike, the source gives them in different places.

T1: human LAG3 ECD recombinant protein (plate coated, tag not stated) (human, UniProt P18627 23-450)
T1 construct: extracellular domain
T1 sequence (looked up): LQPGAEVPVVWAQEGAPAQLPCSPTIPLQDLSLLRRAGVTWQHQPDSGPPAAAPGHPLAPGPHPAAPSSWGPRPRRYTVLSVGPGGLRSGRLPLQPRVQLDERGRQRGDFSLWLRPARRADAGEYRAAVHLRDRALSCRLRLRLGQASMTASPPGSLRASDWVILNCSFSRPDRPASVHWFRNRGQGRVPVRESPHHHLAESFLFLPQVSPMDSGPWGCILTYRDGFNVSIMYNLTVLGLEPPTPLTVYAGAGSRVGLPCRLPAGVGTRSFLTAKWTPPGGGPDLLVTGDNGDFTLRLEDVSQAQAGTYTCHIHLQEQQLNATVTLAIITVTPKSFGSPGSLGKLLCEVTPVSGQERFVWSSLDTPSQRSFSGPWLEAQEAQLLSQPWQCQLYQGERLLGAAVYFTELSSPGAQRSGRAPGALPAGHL

T2: LAG3 D1 domain extra loop peptide (biotin labelled (site not stated))
T2 peptide: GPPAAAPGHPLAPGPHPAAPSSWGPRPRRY

T3: human LAG3, full length, stably expressed on cells (human, UniProt P18627 23-525)
T3 construct: whole, on cells; also called CHOK1-human LAG3
T3 sequence (looked up): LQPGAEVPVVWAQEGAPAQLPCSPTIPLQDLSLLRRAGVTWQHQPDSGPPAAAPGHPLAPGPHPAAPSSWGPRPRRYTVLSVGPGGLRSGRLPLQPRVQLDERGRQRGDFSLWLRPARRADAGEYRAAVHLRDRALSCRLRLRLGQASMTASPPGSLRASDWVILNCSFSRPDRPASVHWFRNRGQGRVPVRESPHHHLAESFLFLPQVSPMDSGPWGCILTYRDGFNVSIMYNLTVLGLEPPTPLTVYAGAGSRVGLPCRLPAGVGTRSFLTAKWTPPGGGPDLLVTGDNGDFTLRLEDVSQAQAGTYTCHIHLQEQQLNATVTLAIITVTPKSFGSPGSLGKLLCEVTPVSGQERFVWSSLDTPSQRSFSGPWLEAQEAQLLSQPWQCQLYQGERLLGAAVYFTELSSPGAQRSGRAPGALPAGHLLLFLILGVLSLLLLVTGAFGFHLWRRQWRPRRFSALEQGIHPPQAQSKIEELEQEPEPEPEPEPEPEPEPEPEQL

T4: mFc tagged human LAG3 ECD recombinant protein (human, UniProt P18627 23-450)
T4 construct: extracellular domain; purchased from Biointron; not shown: mouse IgG Fc (mFc) tag
T4 sequence (looked up): T1 sequence (looked up)

T5: human LAG3 (form used in Octet, Biacore and HDX-MS not given) (human, UniProt P18627 23-450, limits assumed)
T5 sequence (looked up): T1 sequence (looked up)

T6: hFc tagged human LAG3 ECD recombinant protein (human, UniProt P18627 23-450)
T6 construct: range 23-450; also called biotin labelled hFc tagged human LAG3 ECD; not shown: human IgG Fc tag
T6 sequence (looked up): T1 sequence (looked up)

B1: BAP-050 (antibody, V domains shown)
VH: QIQLVQSGPELKKPGETVKISCKASGFTLTNYGMNWVRQTPGKGLKWMGWINTDTGEPTYADDFKGRFAFSLETSASTASLQINNLKNADTATYFCARNPPYYYGTNNAEAMDYWGQGTAVTVSS
VL: DIQMTQTTSSLSASLGDRVTISCSSSQDISNYLNWYQQKPDGTVKVLIYYTSTLHLGVPSRFSGSGSGTDYSLTISNLELEDIATYYCQQYYNLPWTFGGGTKLEIK
notes: also called BAP-50
B2: 029c (antibody, human IgG4, V domains shown)
VH: DVKLVESGEDLVKPGGSLKLSCAASGFTFSSYAMSWVRQTPEKRLEWVAYVTSGGDYIYYADTVKGRFTISRDDVRNTLYLQMSSLKSEDTAMYYCTRVAYDYEWYFDVWGTGAPVTVSS
VL: DIVMTQSHKFMSTSVGDRVSITCKASQDVTTAVAWYQQKPGQSPKLLIYSASYRYTGVSDRFTGSGSGTDFTFTISSVQAEDLALYYCQQHDSSPWTFGGGTKLEIK
notes: human IgG4 S228P / kappa chimeric antibody; also called chimeric antibody 029; not shown: human kappa light chain constant region (pcDNA3.4-hIgGk vector)
B3: hu029.55 (antibody, V domains shown)
VH: QVQLVESGGGLVKPGGSLRLSCAASGFTFSSYAMSWIRQAPGKGLEWVSYVTSGGDYIYYADTVKGRFTISRDDAKNSLYLQMNSLRAEDTAVYYCTRVAYDYEWYFDVWGQGTLVTVSS
VL: DIQMTQSPSSVSASVGDRVTITCKASQDVTTAVAWYQQKPGKAPKLLIYSASYRYTGVPSRFSGSGSGTDFTLTISSLQPEDFATYYCQQHDSSPWTFGQGTKLEIK
notes: humanized from 029c
B4: hu029.55.S93Q (antibody, V domains shown)
VH: B3 VH
VL: B3 VL with S93Q
B5: 021c (antibody, human IgG4, V domains shown)
VH: DIQLQESGPGLVKPSQSLSLTCSVTGYSITSGYYWNWIRQFPGNKLEWMGDISYDGGNNYNPSLKNRISITRDTSKNQFFLKLNSVTTEDTATYYCARDITLTGAMDYWGQGTSVTVSS
VL: DIVLTQSPASLAVSLGQRATISCRASESVDNYGISFMHWYQQRPGQPPKLLIYRASNLESGIPARFSGSGSRTDFTLTINPVETDDVATYYCQQSNKDPYTFGGGTKLEIK
notes: human IgG4 S228P / kappa chimeric antibody; also called chimeric antibody 021; not shown: human kappa light chain constant region (pcDNA3.4-hIgGk vector)

Tests used:
[1] = molecular target: T1, human LAG3 ECD recombinant protein …; assay: competitive ELISA format I: His-FGL1 binding to coated LAG3 ECD
Description: (§1) After washing, HRP labeled anti-His 2nd antibody (Sigma) was added and incubated at 37° C. for 1 hour. Then, 100 μl/well of TMB solution (Biotechnology) was added. After incubation for 15 minutes at room temperature, the reaction was stopped by the addition of 50 μl of 1N HCl. OD 450 nm was read. […] After washing, HRP labeled anti-SA 2nd antibody (Sigma) was added and incubated at 37° C. for 1 hour. Then, 100 μl/well of TMB solution (Biotechnology) was added. After incubation for 15 minutes at room temperature, the reaction was stopped by the addition of 50 μl of 1N HCl. OD 450 nm was read. […] The competition assay of format III is a competitive FACS assay. […] After washing, dye labeled anti-His 2nd antibody (Sigma) was added and incubated at 37° C. for 1 hour. Fluorescence intensity was detected.

[2] = molecular target: T2, LAG3 D1 domain extra loop peptide; assay: ELISA format I: biotin labelled LAG3 D1 domain extra loop peptide on plate coated antibody; axis printed as Ab Conc. (nM)
Description: In ELISA binding assay of format I (FIG. 9A), biotin labelled LAG3 D1 domain extra loop peptide was incubated with ELISA microplate coated anti-LAG3 antibodies. After washing, HRP labeled anti-SA 2nd antibody (Sigma) was added and incubated at 37° C. for 1 hour. Then, 100 μl/well of TMB solution (Biotechnology) was added. After incubation for 15 minutes at room temperature, the reaction was stopped by the addition of 50 μl of 1N HCl. OD 450 nm was read. In ELISA binding assay of format II (FIG. 9B), biotin labelled LAG3 D1 domain extra loop peptide and anti-LAG3 antibodies were co-incubated in ELISA microplate coated with SA. After washing, HRP labeled anti-human Fc 2nd antibody (Sigma) was added and incubated at 37° C. for 1 hour. Then, 100 μl/well of TMB solution (Biotechnology) was added. After incubation for 15 minutes at room temperature, the reaction was stopped by the addition of 50 μl of 1N HCl. OD 450 nm was read.

[3] = molecular target: T3, human LAG3, full length, stably …; assay: FACS on 293F cells stably expressing human LAG3
Description: Briefly the antibodies were incubated with 2×10⁵ target cells at 4° C. for 1 hour. After washing, fluorescence labeled anti-mouse IgG 2nd antibody (Life Technologies) was added and incubated at 4° C. for 1 hour. Geometric median fluorescence intensity (MFI) was detected and EC₅₀ was calculated using GraphPad Prism9.0.
(§2) MFI was detected and EC₅₀ was calculated using GraphPad Prism9.0.

[4] = molecular target: T4, mFc tagged human LAG3 ECD recombinant …; assay: competitive FACS: mFc tagged human LAG3 ECD binding to MHC II on Raji cells
Description: (§3) Activity of the purified chimeric antibodies to block LAG3 and MHC II interaction was determined by competitive FACS assay. […] After washing, dye labeled anti-mouse Fc 2nd antibody (Sigma) was added and incubated at 37° C. for 1 hour. Fluorescence intensity was detected.

[5] = molecular target: T5, human LAG3 (form used in Octet, Biacore …); assay: BLI (Octet), 1:1 fit
Description: (§4) The association and dissociation curves were fit with 1:1 binding model, and the Ka/Kd/KD values for each antibody were calculated.
as §4

[6] = molecular target: T6, hFc tagged human LAG3 ECD recombinant …; assay: competitive ELISA format II: biotin hFc-LAG3 ECD binding to coated His-FGL1
Description: as §1

[7] = molecular target: T4, mFc tagged human LAG3 ECD recombinant …; assay: competitive FACS: mFc-LAG3 ECD binding to Raji cells (MHC II)
Description: as §3

[8] = molecular target: T4, mFc tagged human LAG3 ECD recombinant …; assay: competitive FACS: mFc tagged human LAG3 ECD binding to MHC II on Raji cells; remark: listed apart in the source
Description: as §3

[9] = molecular target: T5, human LAG3 (form used in Octet, Biacore …); assay: BLI (Octet), 1:1 fit; remark: listed apart in the source
Description: The purified chimeric antibodies were characterized for binding affinity against human LAG3 using Bio-Layer Interferometry technology (Octet system). The association and dissociation curves were fit with 1:1 binding model, and the Ka/Kd/KD values for each antibody were calculated.

[10] = molecular target: T4, mFc tagged human LAG3 ECD recombinant …; assay: competitive ELISA: mFc tagged human LAG3 ECD binding to plate coated LSECtin ECD
Description: Activity of the purified chimeric antibodies to block LAG3 and LSECtin interaction was determined by competitive ELISA assay. […] After washing, HRP labeled anti-mouse Fc 2nd antibody (Sigma) was added and incubated at 37° C. for 1 hour. Then, 100 μl/well of TMB solution (Biotechnology) was added. After incubation for 15 minutes at room temperature, the reaction was stopped by the addition of 50 μl of 1N HCl. OD 450 nm was read.

[11] = molecular target: T3, human LAG3, full length, stably …; assay: FACS on CHOK1 cells stably expressing human LAG3
Description: as §2

Binder	Blocking ratio at 66.7 nM (%) [1]	binding result [2]	EC50 [3]	TOP MFI [3]	%Blocking at 4 nM [4]	%Blocking at 8 nM [4]	Kd [5]	koff [5]	kon [5]	IC50 [6]	TOP blocking (%) [6]	IC50 [7]	TOP blocking (%) [7]	%Blocking at 2 nM [8]	%Blocking at 4 nM [8]	%Blocking at 8 nM [8]	Kd [9]	koff [9]	kon [9]	%Blocking at 4 nM [10]	other results
B1	39.3%	no binding (tested: about 300 nM)	1.7 nM	267																	
B2	62.6%	no binding (tested: about 300 nM)	1.6 nM	416	21.5%	96.7%	7.7 nM	0.0268 s⁻¹	3.48e+06 M⁻¹ s⁻¹	2 nM	84.5%	4.2 nM	96.4%	9.7%	24.1%	84.3%	3.58 nM	0.00139 s⁻¹	389000 M⁻¹ s⁻¹	61.6%	%Blocking at 20 nM [10]: 92.7%; %Blocking at 100 nM [10]: 97%
B3					26%	96.7%	4.42 nM	0.0197 s⁻¹	4.47e+06 M⁻¹ s⁻¹					18.9%	37.5%	98.8%					
B4					62.8%	99.4%	4.08 nM	0.0207 s⁻¹	5.06e+06 M⁻¹ s⁻¹												
B5		no binding (tested: about 300 nM)	15.6 nM				5.34 nM	0.00271 s⁻¹	508000 M⁻¹ s⁻¹	1.93 nM	82%	4.2 nM	99.9%	13.7%	20.1%	76.8%	6.52 nM	0.000905 s⁻¹	139000 M⁻¹ s⁻¹	27.4%	EC50 [11]: 1.6 nM; TOP MFI [11]: 620; %Blocking at 20 nM [10]: 91.4%; %Blocking at 100 nM [10]: 95.6%
